Data published in patent US20070244048A1 (published 2007).
Where two headings read alike, the source gives them in different places. No end group written: not given here.

Columns and labels:
human NMUR2 [1] = molecular target: T1, human NMUR2 (human, UniProt Q9GZQ4 1-415); assay: cell-based or functional assay
mouse NMUR2 [2] = molecular target: T2, mouse NMUR2 (mouse, UniProt Q8BZ39 1-395); assay: cell-based or functional assay
human NMUR1 [3] = molecular target: T3, human NMUR1 (human, UniProt Q9HB89 1-426); assay: cell-based or functional assay
T3 sequence (looked up): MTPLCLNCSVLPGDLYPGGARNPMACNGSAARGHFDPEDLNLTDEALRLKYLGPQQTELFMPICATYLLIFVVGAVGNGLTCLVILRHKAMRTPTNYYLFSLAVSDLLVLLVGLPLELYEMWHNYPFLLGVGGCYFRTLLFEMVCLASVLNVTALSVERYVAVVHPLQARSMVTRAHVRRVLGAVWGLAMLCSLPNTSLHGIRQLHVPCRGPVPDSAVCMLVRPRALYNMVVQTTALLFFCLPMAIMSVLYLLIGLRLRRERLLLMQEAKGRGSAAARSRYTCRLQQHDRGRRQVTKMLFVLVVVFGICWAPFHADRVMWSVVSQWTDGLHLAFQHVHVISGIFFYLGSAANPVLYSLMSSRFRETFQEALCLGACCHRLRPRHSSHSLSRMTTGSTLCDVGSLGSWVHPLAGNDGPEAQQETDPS

rat NMUR2 [4] = molecular target: T4, rat NMUR2 (rat, UniProt Q9ESQ4 1-395); assay: cell-based or functional assay
T4 sequence (Q9ESQ4 whole entry): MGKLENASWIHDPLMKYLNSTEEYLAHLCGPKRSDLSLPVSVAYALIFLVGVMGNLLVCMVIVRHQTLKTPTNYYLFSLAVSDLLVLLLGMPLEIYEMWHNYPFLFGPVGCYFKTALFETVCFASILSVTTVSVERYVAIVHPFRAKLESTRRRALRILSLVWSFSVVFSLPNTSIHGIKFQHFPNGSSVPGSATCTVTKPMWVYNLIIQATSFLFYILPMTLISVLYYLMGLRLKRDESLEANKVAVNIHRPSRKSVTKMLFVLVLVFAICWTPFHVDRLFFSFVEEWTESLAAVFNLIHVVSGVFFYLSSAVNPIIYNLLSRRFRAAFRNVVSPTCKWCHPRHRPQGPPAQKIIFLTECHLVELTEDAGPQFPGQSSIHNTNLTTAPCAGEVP

rat NMUR1-TTG [5] = molecular target: T5, rat NMUR1-TTG (rat, UniProt Q9JJI5 1-425); assay: cell-based or functional assay
T5 sequence (looked up): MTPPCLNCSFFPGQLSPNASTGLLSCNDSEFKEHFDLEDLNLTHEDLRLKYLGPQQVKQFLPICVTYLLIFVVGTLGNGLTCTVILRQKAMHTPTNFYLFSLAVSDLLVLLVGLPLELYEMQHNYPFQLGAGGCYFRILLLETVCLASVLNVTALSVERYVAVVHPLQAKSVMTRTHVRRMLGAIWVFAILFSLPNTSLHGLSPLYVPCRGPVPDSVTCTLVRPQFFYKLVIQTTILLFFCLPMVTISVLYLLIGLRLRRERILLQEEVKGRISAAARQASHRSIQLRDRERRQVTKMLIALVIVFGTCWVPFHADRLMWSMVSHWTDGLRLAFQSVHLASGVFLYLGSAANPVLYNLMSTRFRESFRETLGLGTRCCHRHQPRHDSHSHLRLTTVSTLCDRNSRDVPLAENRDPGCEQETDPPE

mouse NMUR1-ATG [6] = molecular target: T6, mouse NMUR1-ATG (mouse, UniProt O55040 1-428); assay: cell-based or functional assay
T6 sequence (looked up): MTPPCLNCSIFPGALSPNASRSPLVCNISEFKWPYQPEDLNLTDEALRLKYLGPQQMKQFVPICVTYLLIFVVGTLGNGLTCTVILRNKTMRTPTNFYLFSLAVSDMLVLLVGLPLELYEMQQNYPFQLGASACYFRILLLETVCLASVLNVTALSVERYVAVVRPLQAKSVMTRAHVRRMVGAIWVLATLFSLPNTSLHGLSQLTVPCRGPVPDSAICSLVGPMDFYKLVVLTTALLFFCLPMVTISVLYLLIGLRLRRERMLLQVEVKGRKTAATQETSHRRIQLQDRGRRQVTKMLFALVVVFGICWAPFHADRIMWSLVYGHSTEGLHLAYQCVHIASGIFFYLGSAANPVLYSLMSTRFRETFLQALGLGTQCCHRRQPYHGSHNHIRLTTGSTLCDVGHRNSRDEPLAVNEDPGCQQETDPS

mouse NMUR1-CTG [7] = molecular target: T7, mouse NMUR1-CTG (mouse, UniProt O55040 1-428); assay: cell-based or functional assay
T7 sequence (looked up): T6 sequence (looked up)

human NMUR2 [8] = molecular target: T1, human NMUR2; assay: 125I-hNMU-25 displacement, cell membranes
mouse NMUR2 [9] = molecular target: T2, mouse NMUR2; assay: 125I-hNMU-25 displacement, cell membranes
rat NMUR1-ATG [10] = molecular target: T8, rat NMUR1-ATG (rat, UniProt Q9JJI5 1-425); assay: 125I-hNMU-25 displacement, cell membranes
T8 construct: whole, on cells; Cell line with engineered ATG start codon in place of the genomic TTG; also called rat R1-ATG
T8 sequence (looked up): T5 sequence (looked up)

rat NMUR2 [11] = molecular target: T4, rat NMUR2; assay: 125I-hNMU-25 displacement, cell membranes
rat NMUR1-TTG [12] = molecular target: T5, rat NMUR1-TTG; assay: 125I-hNMU-25 displacement, cell membranes
mouse NMUR1-CTG [13] = molecular target: T7, mouse NMUR1-CTG; assay: 125I-hNMU-25 displacement, cell membranes
human NMUR2 [14] = molecular target: T1, human NMUR2; assay: 125I-hNMU-25 displacement, cell membranes; remark: listed apart in the source
mouse NMUR2 [15] = molecular target: T2, mouse NMUR2; assay: 125I-hNMU-25 displacement, cell membranes; remark: listed apart in the source
human NMUR1 [16] = molecular target: T3, human NMUR1; assay: 125I-hNMU-25 displacement, cell membranes
rat NMUR1-ATG [17] = molecular target: T8, rat NMUR1-ATG; assay: 125I-hNMU-25 displacement, cell membranes; remark: listed apart in the source
rat NMUR2 [18] = molecular target: T4, rat NMUR2; assay: 125I-hNMU-25 displacement, cell membranes; remark: listed apart in the source
rat NMUR1-TTG [19] = molecular target: T5, rat NMUR1-TTG; assay: 125I-hNMU-25 displacement, cell membranes; remark: listed apart in the source
mouse NMUR1-ATG [20] = molecular target: T6, mouse NMUR1-ATG; assay: 125I-hNMU-25 displacement, cell membranes
mouse NMUR1-CTG [21] = molecular target: T7, mouse NMUR1-CTG; assay: 125I-hNMU-25 displacement, cell membranes; remark: listed apart in the source

T1 sequence (Q9GZQ4 whole entry): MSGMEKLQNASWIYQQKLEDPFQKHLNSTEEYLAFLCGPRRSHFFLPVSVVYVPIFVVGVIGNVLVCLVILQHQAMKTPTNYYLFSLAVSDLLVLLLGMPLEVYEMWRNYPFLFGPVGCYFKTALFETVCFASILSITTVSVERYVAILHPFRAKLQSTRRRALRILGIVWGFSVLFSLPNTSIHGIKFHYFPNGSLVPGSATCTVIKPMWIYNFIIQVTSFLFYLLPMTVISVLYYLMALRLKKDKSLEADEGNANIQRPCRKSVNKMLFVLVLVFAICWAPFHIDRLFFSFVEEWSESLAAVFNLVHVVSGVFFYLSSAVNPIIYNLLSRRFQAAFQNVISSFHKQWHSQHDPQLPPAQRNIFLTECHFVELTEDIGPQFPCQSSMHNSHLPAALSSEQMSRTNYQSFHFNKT
T2 sequence (Q8BZ39 whole entry): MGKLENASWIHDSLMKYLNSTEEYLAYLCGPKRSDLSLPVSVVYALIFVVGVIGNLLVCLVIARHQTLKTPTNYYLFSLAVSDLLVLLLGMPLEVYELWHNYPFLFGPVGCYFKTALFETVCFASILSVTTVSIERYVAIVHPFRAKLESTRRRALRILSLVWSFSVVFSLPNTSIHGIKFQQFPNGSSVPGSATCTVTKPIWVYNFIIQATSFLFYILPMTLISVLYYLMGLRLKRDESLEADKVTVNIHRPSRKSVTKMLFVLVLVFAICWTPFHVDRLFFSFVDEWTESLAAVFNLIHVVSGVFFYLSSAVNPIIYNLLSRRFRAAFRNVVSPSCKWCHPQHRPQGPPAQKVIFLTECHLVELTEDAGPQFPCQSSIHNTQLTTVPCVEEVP

Q: Which results are given for FRVDEEFQSPFASQSRGYFLFRPRN-NH2 (also called hNMU-25; native hNMU) [human NMU-25]?
A: IC50 (nM), functional (human NMUR2 [1]): 0.8 nM; IC50 (nM), functional (mouse NMUR2 [2]): 0.2 nM; IC50 (nM), functional (human NMUR1 [3]): 0.2 nM; IC50 (nM), functional (rat NMUR2 [4]): 1.6 nM; IC50 (nM), functional (rat NMUR1-TTG [5]): 1 nM; IC50 (nM), functional (mouse NMUR1-ATG [6]): 0.9 nM; IC50 (nM), functional (mouse NMUR1-CTG [7]): 2.9 nM; IC50 (human NMUR2 [8]): 0.056 nM; IC50 (mouse NMUR2 [9]): 0.2 nM; IC50 (rat NMUR1-ATG [10]): 1.2 nM; IC50 (rat NMUR2 [11]): 0.6 nM; IC50 (rat NMUR1-TTG [12]): 0.2 nM; IC50 (mouse NMUR1-CTG [13]): 0.15 nM; IC50 (human NMUR2 [14]): 0.056 nM; IC50 (mouse NMUR2 [15]): 0.2 nM; IC50 (human NMUR1 [16]): 0.14 nM; IC50 (rat NMUR1-ATG [17]): 1.2 nM; IC50 (rat NMUR2 [18]): 0.6 nM; IC50 (rat NMUR1-TTG [19]): 0.2 nM; IC50 (mouse NMUR1-ATG [20]): 0.4 nM; IC50 (mouse NMUR1-CTG [21]): 0.15 nM
